The numbers were not newly measured in article PMC5983787, which cites them from elsewhere.

Like-named read-outs stand apart in the source and are kept apart here.

The target in data set [1] is Cx43 (UniProt P17302).
Data set [2] concerns the target Cx43 (UniProt P17302). This is another data set of the same source.

Chain of UniProt P17302 (P17302 2-382): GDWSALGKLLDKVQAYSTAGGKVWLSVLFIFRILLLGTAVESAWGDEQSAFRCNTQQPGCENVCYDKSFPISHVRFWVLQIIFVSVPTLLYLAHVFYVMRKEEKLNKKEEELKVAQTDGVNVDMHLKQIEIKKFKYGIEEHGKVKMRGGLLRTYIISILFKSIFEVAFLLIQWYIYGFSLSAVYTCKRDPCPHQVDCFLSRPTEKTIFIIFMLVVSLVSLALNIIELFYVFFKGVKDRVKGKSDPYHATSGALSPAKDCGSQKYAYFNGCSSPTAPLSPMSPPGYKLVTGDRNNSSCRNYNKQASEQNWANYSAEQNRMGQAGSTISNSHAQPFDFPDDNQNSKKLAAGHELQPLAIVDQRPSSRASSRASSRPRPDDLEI

In the case of Nedd4 (from UniProt P46934), the equilibrium dissociation constant (Kd) in the data set with Cx43 [1] was 1060 µM; in the data set with Cx43 [2], 585 µM.
